Reference: US20140356384A1 (COLE POLYTECHNIQUE F D RALE DE LAUSANNE EPFL, published 2014)

B1: ERY1-OVA (ERY1 peptide chemically conjugated to ovalbumin through SMCC) (other)
peptide: WMVLPWLPGTLDGGSGCRG
chain: GSIGAASMEFCFDVFKELKVHHANENIFYCPIAIMSALAMVYLGAKDSTRTQINKVVRFDKLPGFGDSIEAQCGTSVNVHSSLRDILNQITKPNDVYSFSLASRLYAEERYPILPEYLQCVKELYRGGLEPINFQTAADQARELINSWVESQTNGIIRNVLQPSSVDSQTAMVLVNAIVFKGLWEKAFKDEDTQAMPFRVTEQESKPVQMMYQIGLFRVASMASEKMKILELPFASGTMSMLVLLPDEVSGLEQLESIINFEKLTEWTSSNVMEERKIKVYLPRMKMEEKYNLTSVLMAMGITDVFSSSANLSGISSAESLKISQAVHAAHAEINEAGREVVGSAEAGVDAASVSEEFRADHPFLFCIKHIATNAVLFFGRCVSP
modifications: lysine side chains carry SMCC linked to the cysteine of the ERY1 peptide; C-terminal amide (CONH2); cysteine side chain conjugated through SMCC to lysine side chains of OVA
notes: also called ERY1-conjugated protein
B2: MIS-OVA (OVA conjugated with the mismatch peptide through SMCC) (other)
peptide: PLLTVGMDLWPWGGSGCRG
chain: B1 chain
modifications: lysine side chains carry SMCC linked to the cysteine of the MIS peptide; C-terminal amide (CONH2); cysteine side chain conjugated through SMCC to lysine side chains of OVA

Key:
[1] = biological target: T1, mouse glycophorin-A (GYPA) on the erythrocyte membrane (mouse, UniProt P14220 1-168); assay: equilibrium binding to mouse erythrocytes by flow cytometry, one-site binding fit
[2] = biological target: T1, mouse glycophorin-A (GYPA) on the …; assay: flow cytometry of mouse erythrocytes incubated with the OVA conjugate, OVA detected on the cell surface

Row | Binder | Kd [1] | binding result [2]
1 | B1 | 6.2 nM | –
2 | B2 | – | no binding
